Substitutions are numbered along the chain they refer to. Names may count otherwise.
T1: human FcγRIIa(R) (human, UniProt P12318 36-217)
T1 construct: also called FcgRIIaR; FcγRIIa type R
T1 chain: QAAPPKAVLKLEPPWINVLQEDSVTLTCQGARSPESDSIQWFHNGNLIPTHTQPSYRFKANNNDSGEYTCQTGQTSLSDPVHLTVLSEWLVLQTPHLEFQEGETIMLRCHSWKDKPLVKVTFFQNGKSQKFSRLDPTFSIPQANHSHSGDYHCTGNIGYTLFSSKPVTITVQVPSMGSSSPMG

T2: human FcγRIIa(H) (human, UniProt P12318 36-217)
T2 construct: also called FcgRIIaH; FcγRIIa type H
T2 sequence: T1 chain with R133H

T3: human FcγRIIb (human, UniProt P31994 43-217, limits assumed)
T3 construct: also called FcgRIIb
T3 sequence: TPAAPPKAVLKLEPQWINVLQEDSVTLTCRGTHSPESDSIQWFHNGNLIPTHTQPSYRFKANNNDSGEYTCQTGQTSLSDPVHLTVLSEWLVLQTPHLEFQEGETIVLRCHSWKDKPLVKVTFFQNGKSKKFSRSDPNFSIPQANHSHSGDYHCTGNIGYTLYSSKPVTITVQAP

B1: GpH7-B3 variant L234Q/GpL16-k0 (antibody, human IgG1)
heavy: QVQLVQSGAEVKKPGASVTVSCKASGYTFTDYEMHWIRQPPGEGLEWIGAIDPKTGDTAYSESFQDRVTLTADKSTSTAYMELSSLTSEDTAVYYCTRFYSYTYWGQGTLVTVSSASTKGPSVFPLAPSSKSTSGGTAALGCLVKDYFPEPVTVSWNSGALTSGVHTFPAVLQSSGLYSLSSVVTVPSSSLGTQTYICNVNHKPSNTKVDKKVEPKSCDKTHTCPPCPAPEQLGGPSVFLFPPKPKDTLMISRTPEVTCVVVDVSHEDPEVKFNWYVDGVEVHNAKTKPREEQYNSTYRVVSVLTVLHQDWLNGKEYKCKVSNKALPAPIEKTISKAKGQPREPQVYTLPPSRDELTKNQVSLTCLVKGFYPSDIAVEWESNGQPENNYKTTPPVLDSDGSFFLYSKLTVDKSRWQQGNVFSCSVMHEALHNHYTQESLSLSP
light: DIVMTQSPLSLPVTPGEPASISCQASESLVHSNRNTYLHWYLQKPGQSPQLLIYKVSNRFSGVPDRFSGSGSGTDFTLKISRVEAEDVGVYYCSQNTHVPPTFGQGTKVEIE
notes: copies: 2 + 2
B2: GpH7-B3 variant L234W/GpL16-k0 (antibody, human IgG1)
heavy: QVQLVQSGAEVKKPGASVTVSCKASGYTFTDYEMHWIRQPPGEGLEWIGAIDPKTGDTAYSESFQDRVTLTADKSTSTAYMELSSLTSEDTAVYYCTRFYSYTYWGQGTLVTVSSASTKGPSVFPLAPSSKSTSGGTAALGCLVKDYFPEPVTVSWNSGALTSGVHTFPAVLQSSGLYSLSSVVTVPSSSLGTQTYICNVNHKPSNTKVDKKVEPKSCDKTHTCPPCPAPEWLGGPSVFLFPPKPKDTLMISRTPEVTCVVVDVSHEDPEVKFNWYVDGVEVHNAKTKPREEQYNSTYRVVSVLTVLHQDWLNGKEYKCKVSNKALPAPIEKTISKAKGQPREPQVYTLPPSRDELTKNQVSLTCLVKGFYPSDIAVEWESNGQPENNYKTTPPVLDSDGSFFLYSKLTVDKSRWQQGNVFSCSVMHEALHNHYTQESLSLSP
light: B1 light
notes: copies: 2 + 2
B3: GpH7-B3 variant P238Q/GpL16-k0 (antibody, human IgG1)
heavy: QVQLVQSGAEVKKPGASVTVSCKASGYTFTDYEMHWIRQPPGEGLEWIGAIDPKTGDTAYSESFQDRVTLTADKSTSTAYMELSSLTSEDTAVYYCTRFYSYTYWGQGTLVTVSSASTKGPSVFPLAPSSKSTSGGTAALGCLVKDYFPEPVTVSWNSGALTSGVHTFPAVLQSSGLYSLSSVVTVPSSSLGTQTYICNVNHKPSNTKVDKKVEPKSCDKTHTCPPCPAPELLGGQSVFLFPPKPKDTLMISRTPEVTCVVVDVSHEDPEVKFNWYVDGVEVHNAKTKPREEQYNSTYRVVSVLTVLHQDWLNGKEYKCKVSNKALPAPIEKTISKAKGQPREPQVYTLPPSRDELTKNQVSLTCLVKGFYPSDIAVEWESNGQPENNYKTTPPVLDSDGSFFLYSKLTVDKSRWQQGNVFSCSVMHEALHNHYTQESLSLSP
light: B1 light
notes: copies: 2 + 2
B4: GpH7-B3 variant L235R/GpL16-k0 (antibody, human IgG1)
heavy: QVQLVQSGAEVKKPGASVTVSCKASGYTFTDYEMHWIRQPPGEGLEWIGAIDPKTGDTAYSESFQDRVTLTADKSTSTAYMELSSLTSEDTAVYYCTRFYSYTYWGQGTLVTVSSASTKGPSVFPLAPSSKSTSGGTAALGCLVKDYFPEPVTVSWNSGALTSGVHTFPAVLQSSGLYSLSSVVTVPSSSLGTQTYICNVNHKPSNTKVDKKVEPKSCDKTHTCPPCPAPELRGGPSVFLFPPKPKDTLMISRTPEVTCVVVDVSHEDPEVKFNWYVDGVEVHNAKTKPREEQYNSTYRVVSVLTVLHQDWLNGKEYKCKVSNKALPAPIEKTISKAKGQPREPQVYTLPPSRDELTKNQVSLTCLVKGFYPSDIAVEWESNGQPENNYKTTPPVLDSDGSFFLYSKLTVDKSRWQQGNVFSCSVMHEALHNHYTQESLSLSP
light: B1 light
notes: copies: 2 + 2
B5: GpH7-B3 variant P238K/GpL16-k0 (antibody, human IgG1)
heavy: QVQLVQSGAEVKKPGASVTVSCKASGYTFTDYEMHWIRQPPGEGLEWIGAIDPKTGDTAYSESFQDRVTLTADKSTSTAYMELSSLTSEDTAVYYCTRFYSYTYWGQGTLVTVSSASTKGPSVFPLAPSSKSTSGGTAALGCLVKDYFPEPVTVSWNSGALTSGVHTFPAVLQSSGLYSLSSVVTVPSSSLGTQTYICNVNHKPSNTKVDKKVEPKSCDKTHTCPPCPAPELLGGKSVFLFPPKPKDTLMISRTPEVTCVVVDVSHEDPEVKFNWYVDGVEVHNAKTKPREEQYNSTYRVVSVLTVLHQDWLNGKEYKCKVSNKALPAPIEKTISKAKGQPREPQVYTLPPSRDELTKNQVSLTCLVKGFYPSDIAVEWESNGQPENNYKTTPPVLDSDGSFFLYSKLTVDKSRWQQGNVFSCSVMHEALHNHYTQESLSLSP
light: B1 light
notes: copies: 2 + 2
B6: GpH7-B3 variant L235A/GpL16-k0 (antibody, human IgG1)
heavy: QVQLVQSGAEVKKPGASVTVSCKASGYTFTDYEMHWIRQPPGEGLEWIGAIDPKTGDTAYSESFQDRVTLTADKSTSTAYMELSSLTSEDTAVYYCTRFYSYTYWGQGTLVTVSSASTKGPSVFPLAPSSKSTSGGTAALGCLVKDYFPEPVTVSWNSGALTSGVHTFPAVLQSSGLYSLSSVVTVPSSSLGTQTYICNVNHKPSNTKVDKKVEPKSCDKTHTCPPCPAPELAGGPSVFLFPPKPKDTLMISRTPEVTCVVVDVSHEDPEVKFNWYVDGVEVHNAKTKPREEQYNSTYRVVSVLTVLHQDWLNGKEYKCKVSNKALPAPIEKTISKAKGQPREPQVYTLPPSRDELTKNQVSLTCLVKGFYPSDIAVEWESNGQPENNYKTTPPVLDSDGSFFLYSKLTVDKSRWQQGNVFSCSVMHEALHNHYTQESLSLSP
light: B1 light
notes: copies: 2 + 2
B7: GpH7-B3 variant L235M/GpL16-k0 (antibody, human IgG1)
heavy: not shown
light: B1 light
notes: copies: 2 + 2
B8: GpH7-B3 variant L235Q/GpL16-k0 (antibody, human IgG1)
heavy: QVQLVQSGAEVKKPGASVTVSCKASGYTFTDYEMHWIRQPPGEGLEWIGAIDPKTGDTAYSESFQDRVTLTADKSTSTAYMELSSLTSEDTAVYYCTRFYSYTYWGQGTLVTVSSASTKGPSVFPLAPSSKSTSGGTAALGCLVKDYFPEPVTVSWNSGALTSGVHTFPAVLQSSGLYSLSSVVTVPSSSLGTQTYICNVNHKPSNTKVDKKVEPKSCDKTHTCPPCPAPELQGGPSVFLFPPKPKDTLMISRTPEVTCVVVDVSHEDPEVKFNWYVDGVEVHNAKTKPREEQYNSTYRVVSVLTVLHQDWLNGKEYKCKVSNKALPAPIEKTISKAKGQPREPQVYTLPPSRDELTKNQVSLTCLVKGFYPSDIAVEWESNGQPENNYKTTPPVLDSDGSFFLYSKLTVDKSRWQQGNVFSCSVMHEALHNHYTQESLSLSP
light: B1 light
notes: copies: 2 + 2
B9: GpH7-B3 variant L235H/GpL16-k0 (antibody, human IgG1)
heavy: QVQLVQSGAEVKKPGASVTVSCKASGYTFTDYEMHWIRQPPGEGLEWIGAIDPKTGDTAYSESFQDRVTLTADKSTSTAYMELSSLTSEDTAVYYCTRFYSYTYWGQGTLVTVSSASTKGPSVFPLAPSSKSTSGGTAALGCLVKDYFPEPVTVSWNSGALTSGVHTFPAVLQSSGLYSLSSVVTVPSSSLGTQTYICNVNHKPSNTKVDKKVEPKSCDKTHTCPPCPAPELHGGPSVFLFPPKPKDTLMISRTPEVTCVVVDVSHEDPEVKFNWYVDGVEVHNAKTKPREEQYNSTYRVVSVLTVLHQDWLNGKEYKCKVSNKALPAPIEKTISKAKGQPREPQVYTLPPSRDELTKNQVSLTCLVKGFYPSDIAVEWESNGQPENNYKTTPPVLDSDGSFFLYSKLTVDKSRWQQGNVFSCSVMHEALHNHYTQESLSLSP
light: B1 light
notes: copies: 2 + 2
B10: GpH7-B3 variant L235I/GpL16-k0 (antibody, human IgG1)
heavy: not shown
light: B1 light
notes: copies: 2 + 2
B11: GpH7-B3 variant L234R/GpL16-k0 (antibody, human IgG1)
heavy: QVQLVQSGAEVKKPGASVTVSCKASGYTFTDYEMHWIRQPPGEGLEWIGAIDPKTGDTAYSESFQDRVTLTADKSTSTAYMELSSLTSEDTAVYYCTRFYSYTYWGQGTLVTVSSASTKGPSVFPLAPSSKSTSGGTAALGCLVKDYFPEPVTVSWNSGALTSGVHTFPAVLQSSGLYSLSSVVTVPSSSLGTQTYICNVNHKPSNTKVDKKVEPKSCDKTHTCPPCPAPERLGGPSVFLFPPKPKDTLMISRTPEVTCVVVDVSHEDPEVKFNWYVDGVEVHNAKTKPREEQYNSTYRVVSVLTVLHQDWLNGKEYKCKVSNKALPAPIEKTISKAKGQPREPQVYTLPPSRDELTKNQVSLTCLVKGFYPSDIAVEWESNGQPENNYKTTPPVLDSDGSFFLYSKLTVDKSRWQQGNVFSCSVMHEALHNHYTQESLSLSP
light: B1 light
notes: copies: 2 + 2
B12: GpH7-B3 variant P238N/GpL16-k0 (antibody, human IgG1)
heavy: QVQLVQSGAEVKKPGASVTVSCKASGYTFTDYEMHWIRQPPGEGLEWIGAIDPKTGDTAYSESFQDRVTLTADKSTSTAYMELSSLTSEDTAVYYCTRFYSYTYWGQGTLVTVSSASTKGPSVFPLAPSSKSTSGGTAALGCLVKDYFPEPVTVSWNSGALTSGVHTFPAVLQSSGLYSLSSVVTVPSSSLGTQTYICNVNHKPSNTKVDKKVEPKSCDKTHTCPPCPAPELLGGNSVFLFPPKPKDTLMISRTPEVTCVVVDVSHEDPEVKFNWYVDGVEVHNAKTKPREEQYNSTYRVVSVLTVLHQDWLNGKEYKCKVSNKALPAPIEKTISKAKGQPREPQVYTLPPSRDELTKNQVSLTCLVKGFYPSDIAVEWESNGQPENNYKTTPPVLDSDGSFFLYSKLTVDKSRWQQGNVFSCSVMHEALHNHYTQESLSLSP
light: B1 light
notes: copies: 2 + 2
B13: GpH7-B3 variant L234S/GpL16-k0 (antibody, human IgG1)
heavy: not shown
light: B1 light
notes: copies: 2 + 2
B14: GpH7-B3 variant P238H/GpL16-k0 (antibody, human IgG1)
heavy: not shown
light: B1 light
notes: copies: 2 + 2

biological target: T4, human FcγRIa (human, UniProt P12314 16-292, limits assumed); assay: SPR (Biacore);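 note: antibody variants captured on sensor chip, Fcγ receptor flowed over at 25 °C, bound receptor normalized to amount of captured antibody, expressed relative to reference antibody set as 100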
T4 construct: also called FcgRIa; FcγRI (CD64)
T4 sequence (P12314 16-292 limits assumed): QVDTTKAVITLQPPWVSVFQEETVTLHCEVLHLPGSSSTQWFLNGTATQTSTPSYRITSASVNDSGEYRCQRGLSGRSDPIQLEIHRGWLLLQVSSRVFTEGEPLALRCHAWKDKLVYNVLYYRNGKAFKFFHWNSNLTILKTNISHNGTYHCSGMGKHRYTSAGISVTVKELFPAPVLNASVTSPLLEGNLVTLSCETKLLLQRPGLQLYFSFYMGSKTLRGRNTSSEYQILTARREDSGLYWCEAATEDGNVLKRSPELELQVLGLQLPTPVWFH

relative binding activity | Binder
80 % of GpH7-B3/GpL16-k0 | B1
94 % of GpH7-B3/GpL16-k0 | B2
84 % of GpH7-B3/GpL16-k0 | B3
0 % of GpH7-B3/GpL16-k0 | B4
8 % of GpH7-B3/GpL16-k0 | B5
66 % of GpH7-B3/GpL16-k0 | B6
93 % of GpH7-B3/GpL16-k0 | B7
29 % of GpH7-B3/GpL16-k0 | B8
2 % of GpH7-B3/GpL16-k0 | B9
93 % of GpH7-B3/GpL16-k0 | B10
50 % of GpH7-B3/GpL16-k0 | B11
64 % of GpH7-B3/GpL16-k0 | B12
63 % of GpH7-B3/GpL16-k0 | B13
80 % of GpH7-B3/GpL16-k0 | B14

Biological target: T1, human FcγRIIa(R)
Assay: SPR (Biacore);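 note: antibody variants captured on sensor chip, Fcγ receptor flowed over at 25 °C, bound receptor normalized to amount of captured antibody, expressed relative to reference antibody set as 100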

relative binding activity | Binder
18 % of GpH7-B3/GpL16-k0 | B1
64 % of GpH7-B3/GpL16-k0 | B2
19 % of GpH7-B3/GpL16-k0 | B3
-4 % of GpH7-B3/GpL16-k0 | B4
-2 % of GpH7-B3/GpL16-k0 | B5
50 % of GpH7-B3/GpL16-k0 | B6
72 % of GpH7-B3/GpL16-k0 | B7
28 % of GpH7-B3/GpL16-k0 | B8
91 % of GpH7-B3/GpL16-k0 | B9
81 % of GpH7-B3/GpL16-k0 | B10
0 % of GpH7-B3/GpL16-k0 | B11
5 % of GpH7-B3/GpL16-k0 | B12
20 % of GpH7-B3/GpL16-k0 | B13
25 % of GpH7-B3/GpL16-k0 | B14

biological target: T2, human FcγRIIa(H); assay: SPR (Biacore);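 note: antibody variants captured on sensor chip, Fcγ receptor flowed over at 25 °C, bound receptor normalized to amount of captured antibody, expressed relative to reference antibody set as 100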

relative binding activity | Binder
16 % of GpH7-B3/GpL16-k0 | B1
63 % of GpH7-B3/GpL16-k0 | B2
4 % of GpH7-B3/GpL16-k0 | B3
1 % of GpH7-B3/GpL16-k0 | B4
-1 % of GpH7-B3/GpL16-k0 | B5
48 % of GpH7-B3/GpL16-k0 | B6
72 % of GpH7-B3/GpL16-k0 | B7
34 % of GpH7-B3/GpL16-k0 | B8
88 % of GpH7-B3/GpL16-k0 | B9
89 % of GpH7-B3/GpL16-k0 | B10
2 % of GpH7-B3/GpL16-k0 | B11
1 % of GpH7-B3/GpL16-k0 | B12
21 % of GpH7-B3/GpL16-k0 | B13
3 % of GpH7-B3/GpL16-k0 | B14

biological target: T3, human FcγRIIb; assay: SPR (Biacore);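 note: antibody variants captured on sensor chip, Fcγ receptor flowed over at 25 °C, bound receptor normalized to amount of captured antibody, expressed relative to reference antibody set as 100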

relative binding activity | Binder
19 % of GpH7-B3/GpL16-k0 | B1
90 % of GpH7-B3/GpL16-k0 | B2
43 % of GpH7-B3/GpL16-k0 | B3
-2 % of GpH7-B3/GpL16-k0 | B4
-2 % of GpH7-B3/GpL16-k0 | B5
37 % of GpH7-B3/GpL16-k0 | B6
63 % of GpH7-B3/GpL16-k0 | B7
20 % of GpH7-B3/GpL16-k0 | B8
66 % of GpH7-B3/GpL16-k0 | B9
88 % of GpH7-B3/GpL16-k0 | B10
0 % of GpH7-B3/GpL16-k0 | B11
27 % of GpH7-B3/GpL16-k0 | B12
19 % of GpH7-B3/GpL16-k0 | B13
19 % of GpH7-B3/GpL16-k0 | B14

biological target: T5, human FcγRIIIa(F) (human, UniProt P08637 17-208, limits assumed); assay: SPR (Biacore)
T5 construct: also called FcgRIIIaF; allotype F158
T5 sequence (P08637 other isoform, or with tags, fused parts or gaps limits assumed): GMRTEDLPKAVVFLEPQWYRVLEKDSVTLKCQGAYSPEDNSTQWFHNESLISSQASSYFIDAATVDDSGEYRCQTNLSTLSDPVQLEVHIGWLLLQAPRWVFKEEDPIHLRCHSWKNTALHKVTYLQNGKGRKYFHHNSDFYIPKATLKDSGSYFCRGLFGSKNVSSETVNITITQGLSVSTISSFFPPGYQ

relative binding activity | Binder
25 % of GpH7-B3/GpL16-k0 | B1
36 % of GpH7-B3/GpL16-k0 | B2
-1 % of GpH7-B3/GpL16-k0 | B3
9 % of GpH7-B3/GpL16-k0 | B4
-1 % of GpH7-B3/GpL16-k0 | B5
49 % of GpH7-B3/GpL16-k0 | B6
42 % of GpH7-B3/GpL16-k0 | B7
35 % of GpH7-B3/GpL16-k0 | B8
28 % of GpH7-B3/GpL16-k0 | B9
85 % of GpH7-B3/GpL16-k0 | B10
4 % of GpH7-B3/GpL16-k0 | B11
-1 % of GpH7-B3/GpL16-k0 | B12
22 % of GpH7-B3/GpL16-k0 | B13
-1 % of GpH7-B3/GpL16-k0 | B14
